Patent US20100173324A1

Molecular target: human CD27 expressed on CHO/DG44 cells (normal O-linked sugar chain) (human) (UniProt P26842)
Experiment: flow cytometry on CD27/DG44-4 cells

Chain of UniProt P26842 (P26842 20-260 H233R limits assumed): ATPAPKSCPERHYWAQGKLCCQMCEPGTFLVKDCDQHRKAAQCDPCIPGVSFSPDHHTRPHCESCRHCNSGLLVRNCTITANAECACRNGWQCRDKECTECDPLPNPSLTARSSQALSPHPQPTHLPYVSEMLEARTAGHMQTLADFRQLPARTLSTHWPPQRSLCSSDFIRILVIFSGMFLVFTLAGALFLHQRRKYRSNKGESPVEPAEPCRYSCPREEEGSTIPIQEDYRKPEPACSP

Anti-CD27 Antibody (O323) gave an EC50 (read off the curve) of 0.2 µg/mL.
